# Target: signal regulatory protein a (SIRPa) (mouse) (UniProt P97797)
# Assay: cell-based or functional assay
# Chain of UniProt P97797 (P97797 32-513): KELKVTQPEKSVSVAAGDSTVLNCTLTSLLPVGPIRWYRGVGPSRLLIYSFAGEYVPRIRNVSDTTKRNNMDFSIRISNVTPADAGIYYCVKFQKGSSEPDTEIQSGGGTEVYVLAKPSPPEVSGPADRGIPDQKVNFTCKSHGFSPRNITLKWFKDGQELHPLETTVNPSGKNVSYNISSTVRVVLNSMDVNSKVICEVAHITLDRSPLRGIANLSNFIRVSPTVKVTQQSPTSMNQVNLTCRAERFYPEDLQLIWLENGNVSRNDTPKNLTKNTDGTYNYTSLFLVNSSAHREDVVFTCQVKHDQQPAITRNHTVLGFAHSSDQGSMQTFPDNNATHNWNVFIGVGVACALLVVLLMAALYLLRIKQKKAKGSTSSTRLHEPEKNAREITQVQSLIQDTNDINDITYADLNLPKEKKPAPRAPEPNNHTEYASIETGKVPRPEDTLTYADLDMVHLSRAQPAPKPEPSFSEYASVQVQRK
substance,measurement,value
Myc and GFP11-tagged mouse CD47 (CD47-Myc-GFP11) (from UniProt Q61735 19-303),Gectosomes depleted by RAW 264.7 macrophages after 3 h (BlaM activity remaining in the media),10 % depleted
same,Gectosomes depleted by RAW 264.7 macrophages after 6 h (BlaM activity remaining in the media),50 % depleted
